Measured values from patent publication US20200009213A1, “Specific Increase of Dopamine Synthesis THrough Targeting of the Guanylate Cyclase 2C Receptor in the Treatment of Parkinson's Disease” (Universiteit van Amsterdam, priority 2017, published 2020).

What was measured:
[1] = test system: Th Ser40 phosphorylation (cGMP-derived signaling) in HEK cells; assay: Ser40 phosphorylation of Th in HEK cells transfected with Th (western blotting, ratio P-Ser40/Total Th); assay type: cell-based, mouse Th in HEK cells; settings: 500 μM, 1 hour, 48 hours post-plating, n=6, p<0.0001
Experimental: FIG. 3. HEK cells are a suitable model to study GUCY2C-induced Ser40 phosphorylation. (A) RT-qPCR data from intact HEK extracts. Input material was 10 ng of total RNA. Cp corresponds to the cycle number in which the expression starts to be considered positive. (-) represents the water control, which is negative in every case. (B) HEK cultures were transfected with Th and treated with a cGMP analogue 48 hours post-plating. Changes in Ser40 phosphorylation were studied. The graph represents the statistical analysis (n=6; Mean±SEM). Unpaired Student's t-test (p-value: ****<0.0001). Hereon, ‘Fold Change’ corresponds to the ratio P-Ser40/Total Th.
HEK cells were maintained in 100-mm Petri dishes and grown in DMEM medium supplemented with L-glutamine, penicillin-streptomycin (Pen&Strep) and 10% heat-inactivated fetal bovine serum (HIFBS). Growing conditions were 37° C. and 5% CO2. For every-other-day passages, HEK cultures were split at a 1:3 dilution. From Friday to Monday, the split proportion was doubled for all cell lines. For passaging, cultures were rinsed with PBS and incubated with 1 mL of trypsin during 5 minutes. Cells were resuspended in growth medium and finally split to the proper dilution. The experiments were performed in 12-well plates. For immunocytochemistry analysis, sterile 18-mm coverslips were added prior to the plating. 500 μL of cell resuspension was seeded in each well. […]

[2] = target: T1, human GUCY2C (Homo sapiens, UniProt P25092); assay: Ser40 phosphorylation of Th in HEK cells co-transfected with Th and GUCY2C (western blotting, ratio P-Ser40/Total Th); assay type: cell-based; settings: guanylin 10 μM, 1 hour; for P-Ser40 levels (Fold Change = ratio P-Ser40/Total Th): HEK cells co-transfected with Th and GUCY2C, uroguanylin 1 μM, p<0.01
T1 construct: expressed in transfected cells; host or cells: HEK cells
Experimental: FIG. 4. GUCY2C activation increases Ser40 phosphorylation. Immunocytochemistry images (A) and western blotting analysis (B) of HEK cultures transfected with Th or Th+GUCY2C. (C) Co-transfected HEK cells were treated with guanylin (G) or uroguanylin (UroG) and changes in Ser40 phosphorylation were studied. The graph represents the statistical analysis (n=3 for Control, n=6 for Guanylin, n=9 for Uroguanylin; Mean±SEM). Unpaired Student's t-test (p-value: **<0.01).
(§1) FIG. 5. The increase in Ser40 phosphorylation is proportional to the produced amount of cGMP upon GUCY2C stimulation. (A) HEK cultures were treated with guanylin, in the presence or absence of IBMX. […] Unpaired Student's t-test (p-values: ****<0.0001, **<0.01, *<0.05). (B) HEK cells were co-transfected with Th and either the wt GUCY2C or a gain-of-function mutant (R792S). Ser40 phosphorylation was studied following guanylin treatment (G). […] Unpaired Student's t-test (p-values: ***<0.001, **<0.01).
HEK cells were maintained in 100-mm Petri dishes and grown in DMEM medium supplemented with L-glutamine, penicillin-streptomycin (Pen&Strep) and 10% heat-inactivated fetal bovine serum (HIFBS). Growing conditions were 37° C. and 5% CO2. For every-other-day passages, HEK cultures were split at a 1:3 dilution. From Friday to Monday, the split proportion was doubled for all cell lines. For passaging, cultures were rinsed with PBS and incubated with 1 mL of trypsin during 5 minutes. Cells were resuspended in growth medium and finally split to the proper dilution. The experiments were performed in 12-well plates. For immunocytochemistry analysis, sterile 18-mm coverslips were added prior to the plating. 500 μL of cell resuspension was seeded in each well. If experiments were to be performed 48 hours after the plate preparation, 1:5 was the seeding ratio for HEK cells. When the experiments took place 96 hours post-plating, 1:7 was the working dilution for HEK cells. Unless otherwise stated, HEK cultures were processed 96 hours post-plating.
HEK cells were transfected using the calcium-phosphate method. […]

[3] = target: T2, GUCY2C R792S mutant (Homo sapiens, UniProt P25092, R792S); assay: Ser40 phosphorylation in HEK cells co-transfected with Th and GUCY2C gain-of-function mutant R792S versus wt; assay type: cell-based; settings: HEK cells co-transfected with Th and wt or R792S GUCY2C; FIG. 5B
T2 construct: expressed in transfected cells; host or cells: HEK cells
Experimental: as §1
HEK cells were transfected using the calcium-phosphate method. 12-well plates were refreshed with 500 μL of growth medium before transfection. […] The plasmid mixture was taken into a final concentration of 250 mM CaCl2 in a total volume of 110 μL. A complementary tube was filled with 110 μL of HEPES-buffered saline 2× (HEBS 2×: 1.5 mM Na2HPO4, 50 mM HEPES pH 7.05, 280 mM NaCl). […]
Up to 35 μL of sample was loaded in each slot and run in the presence of tris-glycine buffer and 0.1% SDS. […] After additional washings during 1 hour, blots were exposed to an enhanced chemiluminescence solution and the signal was detected using an Odyssey imager (LI-COR). […] For graph quantifications, ‘Fold Change’ represents the ratio P-Ser40/Total Th. Statistical comparisons between pair of groups correspond to unpaired Student's t-tests, as calculated with GraphPad Prism. […]

[4] = injected into the blood stream; cited from earlier work

T1 sequence (P25092 24-1073): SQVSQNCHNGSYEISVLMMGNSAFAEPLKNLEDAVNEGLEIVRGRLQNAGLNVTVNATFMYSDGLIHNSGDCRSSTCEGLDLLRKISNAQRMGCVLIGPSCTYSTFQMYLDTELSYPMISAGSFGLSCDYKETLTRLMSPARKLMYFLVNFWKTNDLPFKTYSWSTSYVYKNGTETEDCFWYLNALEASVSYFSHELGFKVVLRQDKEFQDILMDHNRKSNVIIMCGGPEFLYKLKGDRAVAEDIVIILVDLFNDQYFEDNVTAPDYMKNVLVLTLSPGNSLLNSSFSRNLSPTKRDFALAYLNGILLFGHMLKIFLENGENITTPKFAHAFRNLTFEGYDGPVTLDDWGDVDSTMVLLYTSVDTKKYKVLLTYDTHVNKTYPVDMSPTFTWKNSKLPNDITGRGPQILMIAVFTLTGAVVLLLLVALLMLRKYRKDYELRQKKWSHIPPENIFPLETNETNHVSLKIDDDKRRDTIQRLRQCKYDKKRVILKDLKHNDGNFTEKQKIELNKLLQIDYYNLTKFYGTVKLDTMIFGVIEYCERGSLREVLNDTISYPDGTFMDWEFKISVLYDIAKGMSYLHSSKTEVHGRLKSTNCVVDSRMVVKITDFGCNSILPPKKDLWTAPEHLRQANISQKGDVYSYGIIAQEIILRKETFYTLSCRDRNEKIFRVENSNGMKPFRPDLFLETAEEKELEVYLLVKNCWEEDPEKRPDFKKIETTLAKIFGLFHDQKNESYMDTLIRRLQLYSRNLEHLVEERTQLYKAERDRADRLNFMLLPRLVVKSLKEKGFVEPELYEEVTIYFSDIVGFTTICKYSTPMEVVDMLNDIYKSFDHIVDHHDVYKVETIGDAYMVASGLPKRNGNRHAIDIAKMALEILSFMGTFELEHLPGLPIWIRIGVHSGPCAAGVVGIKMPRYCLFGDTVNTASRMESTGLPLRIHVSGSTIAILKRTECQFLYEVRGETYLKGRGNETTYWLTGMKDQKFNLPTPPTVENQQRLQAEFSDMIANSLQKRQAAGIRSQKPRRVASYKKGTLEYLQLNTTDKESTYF
T2 sequence (P25092 24-1073 R792S): as the sequence (P25092 24-1073) above, with R769S counted along it

**Q.** With `Nc1nc2c(nc(Br)n2[C@@H]2O[C@@H]3COP(=O)(O)O[C@H]3[C@H]2O)c(=O)[nH]1` [8-Bromo-cGMP] as the compound, how does the “P-Ser40 levels (Fold Change = ratio P-Ser40/Total Th)” value [1] read?
**A.** Its value is “small but significant increase in P-Ser40 levels”.

**Q.** For `CC(C)Cn1c(=O)n(C)c(=O)c2[nH]cnc21` [IBMX, 3-isobutyl-1-methylxanthine], which “Ser40 phosphorylation with PDE inhibition” value ([2]; HEK cultures, IBMX 100 μM, FIG. 5A) is on record?
**A.** Its value is “potentiated the increase in Ser40 phosphorylation as compared to guanylin administration”.

**Q.** Which results are given for “guanylin: natural agonistic ligand of GUCY2C; a 15 amino acid polypeptide (PGTCEICAYAACTGC)”?
**A.** P-Ser40 levels (Fold Change = ratio P-Ser40/Total Th) [2]: increase P-Ser40 levels; boost in Ser40 phosphorylation upon guanylin treatment, R792S mutant compared to wt receptor [3]: 1.5 fold; passage of the blood-brain barrier [4]: rapidly enters the brain

**Q.** For “uroguanylin: natural agonistic ligand of GUCY2C; a 16 amino acid peptide (NDDCELCVNVACTGCL)”, which “P-Ser40 levels (Fold Change = ratio P-Ser40/Total Th)” value [2] is on record?
**A.** Its value is “increase P-Ser40 levels”.
